The source of these data is paper PMC5340868 (mBio, 2017).

Data set [1] deals with the molecule itself. Briefly: SEC. (SEC sorts molecules by how far they enter the pores of the column.)
Data set [2] concerns the target T1, rRv3167c (TetR-like regulator) (Mycobacterium tuberculosis, UniProt O53317 1-208).
T1 sequence: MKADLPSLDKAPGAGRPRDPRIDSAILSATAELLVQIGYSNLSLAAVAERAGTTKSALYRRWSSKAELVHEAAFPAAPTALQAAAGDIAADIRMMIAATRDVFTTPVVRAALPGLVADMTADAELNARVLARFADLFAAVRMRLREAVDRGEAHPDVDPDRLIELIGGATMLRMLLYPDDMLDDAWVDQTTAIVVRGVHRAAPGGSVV
The experiment in a line: ITC; ITC: 10 mM phosphate pH 7.2, 136 mM NaCl, 4 mM KCl, 25 C ([…]. The following applies: protein: recombinant; tags: N-terminal 6xHis (pET28c, NdeI/BamHI); chain copies: 2; blunt. A general note: ITC needs no label: the signal is the heat of the interaction.

The target of data set [3] is T1, rRv3167c (TetR-like regulator). Briefly: EMSA; 30 uM protein, 200 nM DNA, 5 mM MgCl2; ITC: 10 mM phosphate pH 7.2, 136 mM NaCl, 4 mM KCl, 25 C ([…]. Particulars: protein: recombinant; tags: N-terminal 6xHis (pET28c, NdeI/BamHI); chain copies: 2; blunt. A general note: In EMSA bound probe runs differently from free probe, usually more slowly.

B1: recombinant Rv3167c (rRv3167c), N-terminal 6-histidine tag (natural protein)
chain: MKADLPSLDKAPGAGRPRDPRIDSAILSATAELLVQIGYSNLSLAAVAERAGTTKSALYRRWSSKAELVHEAAFPAAPTALQAAAGDIAADIRMMIAATRDVFTTPVVRAALPGLVADMTADAELNARVLARFADLFAAVRMRLREAVDRGEAHPDVDPDRLIELIGGATMLRMLLYPDDMLDDAWVDQTTAIVVRGVHRAAPGGSVV
notes: also called purified Rv3167c
In the case of B1, in data set [1], the stoichiometry N – broadly, the number of molecules, sites or subunits per partner or assembly – is 2.

B2: palRv3167c (dsDNA)
DNA 1: TAACGCTACCTAAAGTAGCGTAA
DNA 2: TTACGCTACTTTAGGTAGCGTTA
Take B2: the dissociation constant Kd (commonly the free concentration of one partner at which half of the binding sites on the other are occupied at equilibrium, for simple one-to-one binding) in data set [2] was determined as 12.3 ± 3.2 µM.

B3: randomized control DNA (Negative+/-) (dsDNA)
DNA 1: AGCCTTGCAGGCTAATCGGTAGCTA
DNA 2: TAGCTACCGATTAGCCTGCAAGGCT
On to B3, for which the binding result in data set [3] is given as “no binding”.
